This series has as its system TBP2. Kind of series: pull-down. The conditions noted are these: negative control, biotin-dUTP/dATP fill-in, 20 mM Tris pH 8.0, 1 mM EDTA, 5 mM DTT, 5 mM MgCl2, 100 mM KCl, 0.125% NP40, protease inhibitors, overnight at 4 C, washes 100-200 mM KCl (up to 400 mM tested).

“GATCCCGGAGTTAA / GATCTTAACTCCGG [methylated concatamerized GATC-CCGG-AGTTAA probe (SssI+)]” yielded a binding signal (very low affinity, 5-methylcytosine at CpG (SssI), both strands) below 1 % recovered.

The sequence “GATCCCGGAGTTAA / GATCTTAACTCCGG [unmethylated concatamerized GATC-CCGG-AGTTAA probe (SssI-)]” showed a binding signal (residual affinity) of 4 % recovered.

For the origin of these results see publication PMC3169474.
